Assay [1] deals with purified α-thrombin derived from plasma (human) (UniProt P00734). The assay can be described thus: cell-based or functional assay.
The target of assay [2] is purified recombinant α-thrombin (human) (UniProt P00734). Description: cell-based or functional assay.

As for antithrombin III, the Inhibition by ATIII: Secondary reaction constant came out at 0.65 µM⁻¹ min⁻¹ in assay [1] and 0.57 µM⁻¹ min⁻¹ in assay [2].

The values above are taken from US20040197858A1.
